According to US20190218304A1 (INNATE PHARMA, published 2019):
Positions count from the first letter of the chain named.

Experiments:
[1] = molecular target: T1, human CD39 expressed on cells (human, UniProt P49961 1-510); test: cell-based or functional assay
T1 sequence: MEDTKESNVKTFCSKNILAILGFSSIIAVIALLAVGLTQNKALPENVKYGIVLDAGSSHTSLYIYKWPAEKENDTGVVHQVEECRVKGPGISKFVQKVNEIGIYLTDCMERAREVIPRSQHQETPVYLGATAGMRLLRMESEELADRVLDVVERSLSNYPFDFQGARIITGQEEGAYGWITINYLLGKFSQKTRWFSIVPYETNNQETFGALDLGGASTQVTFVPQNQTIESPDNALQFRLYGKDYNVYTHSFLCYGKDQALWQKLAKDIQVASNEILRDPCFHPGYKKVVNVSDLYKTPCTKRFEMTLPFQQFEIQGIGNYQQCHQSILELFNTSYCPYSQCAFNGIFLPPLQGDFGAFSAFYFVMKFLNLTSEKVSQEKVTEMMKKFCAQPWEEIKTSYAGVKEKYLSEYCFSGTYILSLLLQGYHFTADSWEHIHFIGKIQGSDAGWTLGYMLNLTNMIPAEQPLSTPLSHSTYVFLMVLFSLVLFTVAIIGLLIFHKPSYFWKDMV

[2] = molecular target: T2, recombinant human CD39-M2 extracellular domain protein (human, UniProt P49961 38-478); test: cell-based or functional assay
T2 sequence: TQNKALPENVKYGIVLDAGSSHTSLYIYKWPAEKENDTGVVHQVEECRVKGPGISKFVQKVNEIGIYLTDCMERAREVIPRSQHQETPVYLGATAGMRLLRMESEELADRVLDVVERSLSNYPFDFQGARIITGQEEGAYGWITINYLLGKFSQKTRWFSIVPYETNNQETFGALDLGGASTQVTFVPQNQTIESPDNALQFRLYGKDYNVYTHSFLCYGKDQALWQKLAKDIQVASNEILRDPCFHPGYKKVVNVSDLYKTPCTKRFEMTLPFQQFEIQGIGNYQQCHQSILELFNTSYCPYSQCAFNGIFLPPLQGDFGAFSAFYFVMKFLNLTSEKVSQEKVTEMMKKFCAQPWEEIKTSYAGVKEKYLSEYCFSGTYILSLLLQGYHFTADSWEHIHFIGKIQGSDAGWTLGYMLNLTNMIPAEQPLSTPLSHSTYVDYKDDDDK

Human CD39-L4 = molecular target: T3, Human CD39-L4 (human, UniProt O75356 25-428); test: ELISA on coated recombinant human CD39-L4 [panel huCD39 L4]
T3 construct: Recombinant protein coated in ELISA; also called NTPDase5; ENTPD5
T3 sequence: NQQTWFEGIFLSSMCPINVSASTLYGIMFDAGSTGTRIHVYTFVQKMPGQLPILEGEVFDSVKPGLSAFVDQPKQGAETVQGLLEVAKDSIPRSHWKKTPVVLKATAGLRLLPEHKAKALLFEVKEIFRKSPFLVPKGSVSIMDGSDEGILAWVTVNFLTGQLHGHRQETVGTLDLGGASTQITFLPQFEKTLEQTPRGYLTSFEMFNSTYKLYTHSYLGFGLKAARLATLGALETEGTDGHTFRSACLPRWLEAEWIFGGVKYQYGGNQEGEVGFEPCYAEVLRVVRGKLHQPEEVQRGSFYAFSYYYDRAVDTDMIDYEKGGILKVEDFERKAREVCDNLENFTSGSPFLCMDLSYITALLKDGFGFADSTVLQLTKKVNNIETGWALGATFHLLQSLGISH
Method: Wells were washed in TBS Tween 20, and further saturated 2H at RT in TBS Blocking buffer. Dose range concentration of primary antibody was incubated in TBS blocking buffer for 2 h at RT. Wells were washed in TBS Tween 20. […] Optical density was measured on Enspire™ at OD=450.

CD39 mutant 5 = molecular target: T4, CD39 mutant 5 (human, UniProt P49961 1-510); test: flow cytometry on Hek-293T cells transfected with CD39 mutant 5 [panel M5]
T4 construct: Expressed on transfected Hek-293T cells; also called M5
T4 chain: T1 sequence with Q96A, N99A, E143A, R147E

CD39 mutant 15 = molecular target: T5, CD39 mutant 15 (human, UniProt P49961 1-510); test: flow cytometry on Hek-293T cells transfected with CD39 mutant 15 [panel M15]
T5 construct: Expressed on transfected Hek-293T cells; also called M15
T5 chain: T1 sequence with K87A, E100A, D107A

IC50 (inhibition of 50% of the enzymatic activity of CD39 expressed by 50,000 Ramos cells) [1]: 0.05 µg/mL
IC50, inhibition of the ATPase activity of soluble CD39 protein [2]: 0.003 µg/mL
binding result (Human CD39-L4): no binding
binding result (CD39 mutant 5): binds
binding result (CD39 mutant 15): binds
B1: antibody I-394 (antibody, human IgG1, kappa, V domains shown)
VH: EVQLQQSGPELVKPGASVKMSCKASGYTFTDYNMHWVKQSHGRTLEWIGYIVPLNGGSTFNQKFKGRATLTVNTSSRTAYMELRSLTSEDSAAYYCARGGTRFAYWGQGTLVTVSA
VL: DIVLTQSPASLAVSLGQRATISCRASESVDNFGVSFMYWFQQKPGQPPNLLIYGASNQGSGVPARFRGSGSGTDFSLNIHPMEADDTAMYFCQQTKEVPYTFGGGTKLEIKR
notes: The hybridoma-derived mouse form was used in early screening
